The values below come from publication PMC11381518, “Human cell surface-AAV interactomes identify LRP6 as blood-brain barrier transcytosis receptor and immune cytokine IL3 as AAV9 binder” (Nature Communications, 2024).

T1: human LRP6 (AA 20-1368) tagged with human IgG1 Fc (human, UniProt O75581 20-1368)
T1 construct: human LRP6, AA 20-1368; the methods call it full-length, the results the extracellular domain; also called human LRP6-Fc; human LRP6 extracellular domain; source: bought: Bio-Techne
T1 sequence (looked up): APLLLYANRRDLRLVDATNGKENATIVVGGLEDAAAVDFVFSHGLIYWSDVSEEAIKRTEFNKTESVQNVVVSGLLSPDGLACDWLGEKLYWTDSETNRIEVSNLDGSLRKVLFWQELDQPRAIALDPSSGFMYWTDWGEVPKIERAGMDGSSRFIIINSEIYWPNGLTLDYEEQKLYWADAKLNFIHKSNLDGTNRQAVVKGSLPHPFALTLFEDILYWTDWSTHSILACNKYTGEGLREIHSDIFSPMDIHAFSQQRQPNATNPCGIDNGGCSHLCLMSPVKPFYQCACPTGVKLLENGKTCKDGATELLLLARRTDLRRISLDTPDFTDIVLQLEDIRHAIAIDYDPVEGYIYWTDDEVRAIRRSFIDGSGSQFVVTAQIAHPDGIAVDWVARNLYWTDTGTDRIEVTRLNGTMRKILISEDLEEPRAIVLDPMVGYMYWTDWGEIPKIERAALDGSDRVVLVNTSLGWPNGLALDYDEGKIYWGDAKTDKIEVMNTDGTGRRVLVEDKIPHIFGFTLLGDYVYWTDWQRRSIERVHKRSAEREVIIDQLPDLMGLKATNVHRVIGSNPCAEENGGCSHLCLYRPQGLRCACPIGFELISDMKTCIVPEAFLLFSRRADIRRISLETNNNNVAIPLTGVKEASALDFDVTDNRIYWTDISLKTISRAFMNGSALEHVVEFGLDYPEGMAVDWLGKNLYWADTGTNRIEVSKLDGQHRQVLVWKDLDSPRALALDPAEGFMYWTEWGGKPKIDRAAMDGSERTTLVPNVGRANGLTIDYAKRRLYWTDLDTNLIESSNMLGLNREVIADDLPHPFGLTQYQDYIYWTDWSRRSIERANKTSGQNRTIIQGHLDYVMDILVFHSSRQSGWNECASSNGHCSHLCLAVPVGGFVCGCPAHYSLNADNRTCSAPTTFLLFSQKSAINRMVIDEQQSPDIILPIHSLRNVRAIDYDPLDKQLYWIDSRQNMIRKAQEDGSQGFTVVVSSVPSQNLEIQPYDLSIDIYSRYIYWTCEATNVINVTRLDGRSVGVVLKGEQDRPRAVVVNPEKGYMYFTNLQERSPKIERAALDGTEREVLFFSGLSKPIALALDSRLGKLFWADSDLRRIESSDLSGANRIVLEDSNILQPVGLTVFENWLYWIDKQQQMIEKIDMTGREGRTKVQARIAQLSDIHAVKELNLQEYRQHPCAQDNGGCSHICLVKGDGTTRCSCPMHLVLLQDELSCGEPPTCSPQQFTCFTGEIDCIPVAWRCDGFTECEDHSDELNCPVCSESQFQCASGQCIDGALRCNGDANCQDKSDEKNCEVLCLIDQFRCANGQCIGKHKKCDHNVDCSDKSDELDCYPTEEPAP

T2: mouse LRP6 (AA 20-1366) with a 6xHis tag (mouse, UniProt O88572 20-1366)
T2 construct: mouse LRP6 extracellular domain, AA 20-1366; also called full length extracellular domain of mouse LRP6; source: bought: Bio-Techne
T2 sequence (looked up): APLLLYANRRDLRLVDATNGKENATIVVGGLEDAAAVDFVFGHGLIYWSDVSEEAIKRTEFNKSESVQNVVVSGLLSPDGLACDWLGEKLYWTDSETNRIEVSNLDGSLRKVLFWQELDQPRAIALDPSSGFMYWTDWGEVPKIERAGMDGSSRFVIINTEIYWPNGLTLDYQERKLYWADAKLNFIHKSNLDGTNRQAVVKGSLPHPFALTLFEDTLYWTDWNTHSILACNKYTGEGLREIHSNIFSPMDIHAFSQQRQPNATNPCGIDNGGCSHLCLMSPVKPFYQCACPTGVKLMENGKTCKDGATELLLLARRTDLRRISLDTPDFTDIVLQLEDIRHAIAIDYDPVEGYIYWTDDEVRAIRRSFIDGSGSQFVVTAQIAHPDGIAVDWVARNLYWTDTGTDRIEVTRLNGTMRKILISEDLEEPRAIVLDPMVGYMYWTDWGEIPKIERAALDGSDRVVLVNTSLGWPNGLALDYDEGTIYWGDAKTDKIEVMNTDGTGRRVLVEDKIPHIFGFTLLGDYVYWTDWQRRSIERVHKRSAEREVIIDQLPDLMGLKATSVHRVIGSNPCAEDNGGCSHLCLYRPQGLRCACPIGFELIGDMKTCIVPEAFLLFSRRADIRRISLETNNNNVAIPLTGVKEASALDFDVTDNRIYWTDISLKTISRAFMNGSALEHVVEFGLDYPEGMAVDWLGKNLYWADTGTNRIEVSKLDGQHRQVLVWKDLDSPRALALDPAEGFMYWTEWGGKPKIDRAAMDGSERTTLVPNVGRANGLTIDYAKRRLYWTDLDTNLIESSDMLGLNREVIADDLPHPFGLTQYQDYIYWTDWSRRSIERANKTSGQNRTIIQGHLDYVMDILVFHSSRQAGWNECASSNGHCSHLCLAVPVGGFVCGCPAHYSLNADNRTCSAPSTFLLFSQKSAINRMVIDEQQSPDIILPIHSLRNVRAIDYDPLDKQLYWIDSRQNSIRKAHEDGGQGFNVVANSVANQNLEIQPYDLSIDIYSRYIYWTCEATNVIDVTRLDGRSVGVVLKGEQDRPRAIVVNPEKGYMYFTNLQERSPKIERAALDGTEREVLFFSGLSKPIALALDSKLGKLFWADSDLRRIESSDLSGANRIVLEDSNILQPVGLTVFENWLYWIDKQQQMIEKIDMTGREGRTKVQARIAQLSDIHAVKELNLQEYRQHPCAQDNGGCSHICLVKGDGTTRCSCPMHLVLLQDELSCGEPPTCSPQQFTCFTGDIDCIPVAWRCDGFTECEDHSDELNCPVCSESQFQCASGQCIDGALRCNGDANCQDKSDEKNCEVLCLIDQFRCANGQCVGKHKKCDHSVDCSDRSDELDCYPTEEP

B1: AAV9-X1.1 capsid (complex, adeno-associated virus 9, UniProt Q6JC40 1-736, looked up)
chain: MAADGYLPDWLEDNLSEGIREWWALKPGAPQPKANQQHQDNARGLVLPGYKYLGPGNGLDKGEPVNAADAAALEHDKAYDQQLKAGDNPYLKYNHADAEFQERLKEDTSFGGNLGRAVFQAKKRLLEPLGLVEEAAKTAPGKKRPVEQSPQEPDSSAGIGKSGAQPAKKRLNFGQTGDTESVPDPQPIGEPPAAPSGVGSLTMASGGGAPVADNNEGADGVGSSSGNWHCDSQWLGDRVITTSTRTWALPTYNNHLYKQISNSTSGGSSNDNAYFGYSTPWGYFDFNRFHCHFSPRDWQRLINNNWGFRPKRLNFKLFNIQVKEVTDNNGVKTIANNLTSTVQVFTDSDYQLPYVLGSAHEGCLPPFPADVFMIPQYGYLTLNDGSQAVGRSSFYCLEYFPSQMLRTGNNFQFSYEFENVPFHSSYAHSQSLDRLMNPLIDQYLYYLSKTIDGAATKNQTLKFSVAGPSNMAVQGRNYIPGPSYRQQRVSTTVTQNNNSEFAWPGASSWALNGRNSLMNPGPAMASHKEGEDRFFPLSGSLIFGKQGTGRDNVDADKVMITNEEEIKTTNPVATESYGQVATNHQSAQGNNTRSVAQAQTGWVQNQGILPGMVWQDRDVYLQGPIWAKIPHTDGNFHPSPLMGGFGMKHPPPQILIKNTPVPADPPTAFNKDKLNSFITQYSTGQVSVEIEWELQKENSKRWNPEIQYTSNYYKSNNVEFAVNTEGVYSEPRPIGTRYLTRNL
notes: AAV9 capsid protein VP1 with changes in VR-IV and VR-VIII; numbers count on VP1; also called AAV-X1.1; source: HEK293 cells, triple transfected, purified (iodixanol gradient); copies: 60
B2: mouse LRP6-E1E2 (N-half of the extracellular domain, AA 20-628) tagged with mouse IgG2a Fc (Fc fusion, UniProt O88572 20-628, looked up)
chain: APLLLYANRRDLRLVDATNGKENATIVVGGLEDAAAVDFVFGHGLIYWSDVSEEAIKRTEFNKSESVQNVVVSGLLSPDGLACDWLGEKLYWTDSETNRIEVSNLDGSLRKVLFWQELDQPRAIALDPSSGFMYWTDWGEVPKIERAGMDGSSRFVIINTEIYWPNGLTLDYQERKLYWADAKLNFIHKSNLDGTNRQAVVKGSLPHPFALTLFEDTLYWTDWNTHSILACNKYTGEGLREIHSNIFSPMDIHAFSQQRQPNATNPCGIDNGGCSHLCLMSPVKPFYQCACPTGVKLMENGKTCKDGATELLLLARRTDLRRISLDTPDFTDIVLQLEDIRHAIAIDYDPVEGYIYWTDDEVRAIRRSFIDGSGSQFVVTAQIAHPDGIAVDWVARNLYWTDTGTDRIEVTRLNGTMRKILISEDLEEPRAIVLDPMVGYMYWTDWGEIPKIERAALDGSDRVVLVNTSLGWPNGLALDYDEGTIYWGDAKTDKIEVMNTDGTGRRVLVEDKIPHIFGFTLLGDYVYWTDWQRRSIERVHKRSAEREVIIDQLPDLMGLKATSVHRVIGSNPCAEDNGGCSHLCLYRPQGLRCACPIGFELIGDMKTCI
notes: mouse LRP6, YWTD domains 1 and 2 (E1E2), AA 20-628; source: bought: Bio-Techne
B3: AAV.CAP-Mac capsid (complex, adeno-associated virus 9, UniProt Q6JC40 1-736, looked up)
chain: MAADGYLPDWLEDNLSEGIREWWALKPGAPQPKANQQHQDNARGLVLPGYKYLGPGNGLDKGEPVNAADAAALEHDKAYDQQLKAGDNPYLKYNHADAEFQERLKEDTSFGGNLGRAVFQAKKRLLEPLGLVEEAAKTAPGKKRPVEQSPQEPDSSAGIGKSGAQPAKKRLNFGQTGDTESVPDPQPIGEPPAAPSGVGSLTMASGGGAPVADNNEGADGVGSSSGNWHCDSQWLGDRVITTSTRTWALPTYNNHLYKQISNSTSGGSSNDNAYFGYSTPWGYFDFNRFHCHFSPRDWQRLINNNWGFRPKRLNFKLFNIQVKEVTDNNGVKTIANNLTSTVQVFTDSDYQLPYVLGSAHEGCLPPFPADVFMIPQYGYLTLNDGSQAVGRSSFYCLEYFPSQMLRTGNNFQFSYEFENVPFHSSYAHSQSLDRLMNPLIDQYLYYLSKTINGSGQNQQTLKFSVAGPSNMAVQGRNYIPGPSYRQQRVSTTVTQNNNSEFAWPGASSWALNGRNSLMNPGPAMASHKEGEDRFFPLSGSLIFGKQGTGRDNVDADKVMITNEEEIKTTNPVATESYGQVATNHQSAQLNTTKPIAQAQTGWVQNQGILPGMVWQDRDVYLQGPIWAKIPHTDGNFHPSPLMGGFGMKHPPPQILIKNTPVPADPPTAFNKDKLNSFITQYSTGQVSVEIEWELQKENSKRWNPEIQYTSNYYKSNNVEFAVNTEGVYSEPRPIGTRYLTRNL
notes: AAV9 capsid protein VP1 with an insertion in VR-VIII; numbers count on VP1; source: HEK293 cells, triple transfected, purified (iodixanol gradient); copies: 60

Conditions in all cases: both partners purified
Assay [1] addresses T1, human LRP6 (AA 20-1368) tagged with …. As to the kind of experiment: SPR; Sierra SPR-32, protein A sensor chip; human LRP6-Fc captured at 1200-1500 RU in HBS-EP+ (Fig. 4b); AAV injected at 10 µL per min for 240 s, 600 s dissociation; AAV from 2.4 × 10^12 v.g. per mL in twofold dilutions; apparent affinity, avid format. For orientation: In SPR one partner is held on a chip, and binding of the other changes the refractive index at the surface.

Assay [2] has as its target T2, mouse LRP6 (AA 20-1366) with a 6xHis tag. Briefly: pull-down; prey AAVs mixed with His-tagged bait protein and Ni-NTA resin in DPBS with 20 mM imidazole, 1 h at 4 °C; eluate analysed by Western blot with anti-VP1/VP2/VP3 and anti-6xHis. In general terms: A western blot detects proteins with antibodies after separation by electrophoresis.
The assay “AAV.CAP-Mac capsid” has as its target B3. Briefly: SPR; Sierra SPR-32, protein A sensor chip; Fc-fusion protein captured at 600-800 RU in HBS-EP+; AAV injected at 10 µL per min for 240 s, 600 s dissociation; AAV from 2.4 × 10^12 v.g. per mL in twofold dilutions; avid format.
In another assay the target is T3, AAV-BI30 capsid (adeno-associated virus 9, UniProt Q6JC40 1-736, VR VIII AA587-590 AQ - - - - - - - AQ to AQNNSTRGGAQ).
T3 construct: AAV9 capsid protein VP1 with an insertion in VR-VIII; numbers count on VP1; source: HEK293 cells, triple transfected, purified (iodixanol gradient); copies: 60
The description is as above.

The target of the assay “AAV9-X1.1 capsid” is B1. The assay is described as above.

B1: the binding result in assay [1] and in assay [2] was “binds” in each case.
B2: the binding result with AAV.CAP-Mac capsid, in the assay with AAV-BI30 capsid and with AAV9-X1.1 capsid was “binds” in each case.
For the molecule B3, the binding result in assay [1] and in assay [2] was “binds” throughout.
